Assay results as given in US12269859B2, “Synthetic immune receptors and methods of use thereof” (Angeles Therapeutics, Inc., priority 2016, dated 2025).

B1: 031517-W03 (protein)
chain: MALPVTALLLPLALLLHAARPLEGKPIPNPLLGLDSTGSGEDLKNVFPPEVAVFEPSKAEIAHTQKATLVCLATGFYPDHVELSWWVNGKEVHSGVCTDPQPLKEQPALNDSRYCLSSRLRVSATFWQNPRNHFRCQVQFYGLSENDEWTQDRAKPVTQIVSAEAWGRADCGITSASYHQGVLSATILYEILLGKATLYAVLVSALVLMAMVKRKDSRGRAKRSGSGATNFSLLKQAGDVEENPGPTSMALPVTALLLPLALLLHAARPEIVLTQSPSSLSASVGDRVTITCRASSSLSFMHWYQQKPGKAPKPWIYATSNLASGVPSRFSGSGSGTDYTLTISSLQPEDFATYFCHQWSSNPLTFGGGTKVEIKGGGGSGGGGSGGGGSQVQLVQSGAEVKKPGASVKVSCKASGYTFTSYNMHWVRQAPGQRLEWIGAIYPGNGDTSYNQKFKGRVTVTRDTSANTAYMELSSLKSEDTAVYYCARSHYGSNYVDYFDYWGQGTLVTVSSTREQKLISEEDGSGIQNPDPAVYQLRDSKSSDKSVCLFTDFDSQTNVSQSKDSDVYITDKCVLDMRSMDFKSNSAVAWSNKSDFACANAFNNSIIPEDTFFPSSDVPCDVKLVEKSFETDTNLNFQNLSVIGFRILLLKVAGFNLLMTLRLWSSRAKRSGSGVKQTLNFDLLKLAGDVESNPGPSRGHMTEYKPTVRLATRDDVPRAVRTLAAAFADYPATRHTVDPDRHIERVTELQELFLTRVGLDIGKVWVADDGAAVAVWTTPESVEAGAVFAEIGPRMAELSGSRLAAQQQMEGLLAPHRPKEPAWFLATVGVSPDHQGKGLGSAVVLPGVEAAERAGVPAFLETSAPRNLPFYERLGFTVTADVEVPEGPRTWCMTRKPGA
B2: 041417-B06 (protein)
chain: MALPVTALLLPLALLLHAARPEVQLQQSGPGLVKPSQTLSLTCAISGDSVLSNSDTWNWIRQSPSRGLEWLGRTYHRSTWYDDYASSVRGRVSINVDTSKNQYSLQLNAVTPEDTGVYYCARDRLQDGNSWSDAFDVWGQGTMVTVSSLEIQNPDPAVYQLRDSKSSDKSVCLFTDFDSQTNVSQSKDSDVYITDKCVLDMRSMDFKSNSAVAWSNKSDFACANAFNNSIIPEDTFFPSSDVPCDVKLVEKSFETDTNLNFQNLSVIGFRILLLKVAGFNLLMTLRLWSSRAKRSGSGVKQTLNFDLLKLAGDVESNPGPTSMDWIWRILFLVGAATGAHSFEQSALTQPASVSGSPGQSITISCTGTSSDVGGYNYVSWYQQHPGKAPKLMIYDVSNRPSGVSNRFSGSKSGNTASLTISGLQAEDEADYYCSSYTSSSTLVYVFGTGTKVTVLTREDLKNVFPPEVAVFEPSKAEIAHTQKATLVCLATGFYPDHVELSWWVNGKEVHSGVCTDPQPLKEQPALNDSRYCLSSRLRVSATFWQNPRNHFRCQVQFYGLSENDEWTQDRAKPVTQIVSAEAWGRADCGITSASYHQGVLSATILYEILLGKATLYAVLVSALVLMAMVKRKDSRGRAKRSGSGATNFSLLKQAGDVEENPGPSRGHMTEYKPTVRLATRDDVPRAVRTLAAAFADYPATRHTVDPDRHIERVTELQELFLTRVGLDIGKVWVADDGAAVAVWTTPESVEAGAVFAEIGPRMAELSGSRLAAQQQMEGLLAPHRPKEPAWFLATVGVSPDHQGKGLGSAVVLPGVEAAERAGVPAFLETSAPRNLPFYERLGFTVTADVEVPEGPRTWCMTRKPGA
B3: 012617-S04 (protein)
chain: MALPVTALLLPLALLLHAARPLEGKPIPNPLLGLDSTGSGEDLKNVFPPEVAVFEPSKAEIAHTQKATLVCLATGFYPDHVELSWWVNGKEVHSGVCTDPQPLKEQPALNDSRYCLSSRLRVSATFWQNPRNHFRCQVQFYGLSENDEWTQDRAKPVTQIVSAEAWGRADCGITSASYHQGVLSATILYEILLGKATLYAVLVSALVLMAMVKRKDSRGRAKRSGSGATNFSLLKQAGDVEENPGPTSMALPVTALLLPLALLLHAARPDIQMTQSPSSLSASVGDRVTITCRASSSVSYMHWYQQKPGKAPKPLIYAPSNLASGVPSRFSGSGSGTDFTLTISSLQPEDFATYYCQQWSFNPPTFGQGTKVEIKRGGGGSGGGGSGGGGSEVQLVESGGGLVQPGGSLRLSCAASGYTFTSYNMHWVRQAPGKGLEWVGAIYPGNGDTSYNQKFKGRFTISVDKSKNTLYLQMNSLRAEDTAVYYCARVVYYSNSYWYFDVWGQGTLVTVSSTREQKLISEEDGSGIQNPDPAVYQLRDSKSSDKSVCLFTDFDSQTNVSQSKDSDVYITDKCVLDMRSMDFKSNSAVAWSNKSDFACANAFNNSIIPEDTFFPSSDVPCDVKLVEKSFETDTNLNFQNLSVIGFRILLLKVAGFNLLMTLRLWSSRAKRSGSGVKQTLNFDLLKLAGDVESNPGPSRGHMTEYKPTVRLATRDDVPRAVRTLAAAFADYPATRHTVDPDRHIERVTELQELFLTRVGLDIGKVWVADDGAAVAVWTTPESVEAGAVFAEIGPRMAELSGSRLAAQQQMEGLLAPHRPKEPAWFLATVGVSPDHQGKGLGSAVVLPGVEAAERAGVPAFLETSAPRNLPFYERLGFTVTADVEVPEGPRTWCMTRKPGA
B4: 030917-Z01 (protein)
chain: MALPVTALLLPLALLLHAARPEIVLTQSPGTLSLSPGERATLSCRASSSVPYIHWYQQKPGQAPRLLIYATSALASGIPDRFSGSGSGTDFTLTISRLEPEDFAVYYCQQWLSNPPTFGQGTKLELKRLEDLKNVFPPEVAVFEPSKAEIAHTQKATLVCLATGFYPDHVELSWWVNGKEVHSGVCTDPQPLKEQPALNDSRYCLSSRLRVSATFWQNPRNHFRCQVQFYGLSENDEWTQDRAKPVTQIVSAEAWGRADCGITSASYHQGVLSATILYEILLGKATLYAVLVSALVLMAMVKRKDSRGRAKRSGSGATNFSLLKQAGDVEENPGPTSMDWIWRILFLVGAATGAHSFEEVQLVQSGAEVKKPGESLKLSCKGSGRTFTSYNMHWVRQMPGKGLEWMGAIYPLTGDTSYNQKSKLQVTISADKSISTAYLQWSSLKASDTAMYYCARSTYVGGDWQFDVWGKGTTVTVSSTRIQNPDPAVYQLRDSKSSDKSVCLFTDFDSQTNVSQSKDSDVYITDKCVLDMRSMDFKSNSAVAWSNKSDFACANAFNNSIIPEDTFFPSSDVPCDVKLVEKSFETDTNLNFQNLSVIGFRILLLKVAGFNLLMTLRLWSSRAKRSGSGVKQTLNFDLLKLAGDVESNPGPSRGHMTEYKPTVRLATRDDVPRAVRTLAAAFADYPATRHTVDPDRHIERVTELQELFLTRVGLDIGKVWVADDGAAVAVWTTPESVEAGAVFAEIGPRMAELSGSRLAAQQQMEGLLAPHRPKEPAWFLATVGVSPDHQGKGLGSAVVLPGVEAAERAGVPAFLETSAPRNLPFYERLGFTVTADVEVPEGPRTWCMTRKPGA
B5: 031417-N06 (protein)
chain: MALPVTALLLPLALLLHAARPQIVLSQSPAILSASPGEKVTMTCRASSSVSYMHWYQQKPGSSPKPWIYATSNLASGVPARFSGSGSGTSYSFTISRVEAEDAATYYCQQWTFNPPTFGGGTRLEIKRTVAALEIQNPDPAVYQLRDSKSSDKSVCLFTDFDSQTNVSQSKDSDVYITDKCVLDMRSMDFKSNSAVAWSNKSDFACANAFNNSIIPEDTFFPSSDVPCDVKLVEKSFETDTNLNFQNLSVIGFRILLLKVAGFNLLMTLRLWSSRAKRSGSGVKQTLNFDLLKLAGDVESNPGPTSMDWIWRILFLVGAATGAHSFEQAYLQQSGAELVRPGASVKMSCKASGYTFTSYNMHWVKQTPRQGLEWIGGIYPGNGDTSYNQKFKGKATLTVGKSSSTAYMQLSSLTSEDSAVYFCARYDYNYAMDYWGQGTSVTVSSASTREDLKNVFPPEVAVFEPSKAEIAHTQKATLVCLATGFYPDHVELSWWVNGKEVHSGVCTDPQPLKEQPALNDSRYCLSSRLRVSATFWQNPRNHFRCQVQFYGLSENDEWTQDRAKPVTQIVSAEAWGRADCGITSASYHQGVLSATILYEILLGKATLYAVLVSALVLMAMVKRKDSRGRAKRSGSGATNFSLLKQAGDVEENPGPSRGHMTEYKPTVRLATRDDVPRAVRTLAAAFADYPATRHTVDPDRHIERVTELQELFLTRVGLDIGKVWVADDGAAVAVWTTPESVEAGAVFAEIGPRMAELSGSRLAAQQQMEGLLAPHRPKEPAWFLATVGVSPDHQGKGLGSAVVLPGVEAAERAGVPAFLETSAPRNLPFYERLGFTVTADVEVPEGPRTWCMTRKPGA

System: target antigen-expressing cell line
Assay: Jurkat NFAT-GFP assay, coculture with target cell lines expressing the respective target antigen (summary Table 10A)
Assay type: cell-based, human
Design: key: The signs +/−, +, 2+ etc. after the name of the cell lines indicate the relative degree of positivity on the Jurkat-NFAT-GFP assay as measured by the % GFP positive cells; +: relative degree of positivity on the Jurkat-NFAT-GFP assay as measured by the % GFP positive cells; 2+: relative degree of positivity on the Jurkat-NFAT-GFP assay as measured by the % GFP positive cells
Details: relative % GFP positive cells; for NFAT-GFP ASSAY Positive Cell lines: RAJI: SIR-expressing Jurkat-NFAT-GFP cells cocultured with RAJI; for NFAT-GFP ASSAY Positive Cell lines: NALM6: SIR-expressing Jurkat-NFAT-GFP cells cocultured with NALM6
Summary of the method: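 Coculture of SIR-bearing Jurkat NFAT-GFP reporters with target cells, ~1:2 E:T, ~4–18 h. FACS quantified % GFP+ cells, ranked semi-quantitatively against parental Jurkat-NFAT-GFP.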

Row | Molecule | NFAT-GFP ASSAY Positive Cell lines: RAJI | NFAT-GFP ASSAY Positive Cell lines: NALM6
1 | B1 | RAJI (+/−) | 
2 | B2 | RAJI (+/−) | 
3 | B3 |  | (+/−)
4 | B4 | RAJI (2+), NALM6 | (+/−)
5 | B5 |  | (+)
